Assay results from the supplement of paper PMC7125110.
± gives the standard error. Fewer inactive variants are shown than the library holds.

B1: glmS ribozyme (parent)
chain: AUAAAAGCGCCAGAACUACAGAAAUGUAGUUGACGAGGAGGAGGUUUAUCGAAUUUUCGGCGGAUGCCUCCAAA

Key:
Conditions in all cases: with glucosamine-6-phosphate
glucosamine-6-phosphate [1] = variants of: B1; test: self-cleavage kobs at 40 uM GlcN6P; higher = faster cleavage; RNA array
Method in brief: (§1)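 Barcoded ribozyme variants were transcribed in situ on sequenced MiSeq chips by E. coli RNA polymerase. At 37 °C, a hybridised Cy3 probe tracked them while glucosamine-6-phosphate (40 μM to 10 mM) in HEPES/KCl/Mg(OAc)2 buffer flowed in and tiles were imaged over ~14 h. Per-tile medians of signals normalised to baseline and to non-cleaving reference variants were fit to one- or two-exponential decays, giving kobs. kcat and KM came from weighted Michaelis–Menten fits across concentrations.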

glucosamine-6-phosphate [2] = variants of: B1; test: self-cleavage kobs at 160 uM GlcN6P; higher = faster cleavage; RNA array
Method in brief: as §1

glucosamine-6-phosphate [3] = variants of: B1; test: self-cleavage kobs at 640 uM GlcN6P; higher = faster cleavage; RNA array
Method in brief: as §1

glucosamine-6-phosphate [4] = variants of: B1; test: self-cleavage kobs at 2500 uM GlcN6P; higher = faster cleavage; RNA array
Method in brief: as §1

glucosamine-6-phosphate [5] = variants of: B1; test: self-cleavage kobs at 10000 uM GlcN6P; higher = faster cleavage; RNA array
Method in brief: as §1

In the case of A15U C50G, the “self-cleavage kobs at 40 uM GlcN6P” value (glucosamine-6-phosphate [1]) is reported as 3.42e-05 ± 8.1e-06 s⁻¹, the “self-cleavage kobs at 160 uM GlcN6P” value (glucosamine-6-phosphate [2]) is reported as 8.86e-05 ± 1.4e-05 s⁻¹ and the “self-cleavage kobs at 640 uM GlcN6P” value (glucosamine-6-phosphate [3]) is reported as 0.000494 ± 0.00023 s⁻¹. For the same variant, the “self-cleavage kobs at 2500 uM GlcN6P” value (glucosamine-6-phosphate [4]) was 7.94e-05 ± 1.4e-05 s⁻¹.

C16A C34G was tested, and the “self-cleavage kobs at 40 uM GlcN6P” value (glucosamine-6-phosphate [1]) was less than 1e-05 s⁻¹ and the “self-cleavage kobs at 640 uM GlcN6P” value (glucosamine-6-phosphate [3]) was less than 1e-05 s⁻¹.

For A15C G35U A36G U65C C68A, the “self-cleavage kobs at 40 uM GlcN6P” value (glucosamine-6-phosphate [1]) was less than 1e-05 s⁻¹ and the “self-cleavage kobs at 10000 uM GlcN6P” value (glucosamine-6-phosphate [5]) was less than 1e-05 s⁻¹.

For A14G G37A G63U, the “self-cleavage kobs at 40 uM GlcN6P” value (glucosamine-6-phosphate [1]) was less than 1e-05 s⁻¹ and the “self-cleavage kobs at 10000 uM GlcN6P” value (glucosamine-6-phosphate [5]) was less than 1e-05 s⁻¹.

For A14U A36G C50U C61A, the “self-cleavage kobs at 40 uM GlcN6P” value (glucosamine-6-phosphate [1]) was less than 1e-05 s⁻¹.

A14G A39U U56C was tested, and the “self-cleavage kobs at 40 uM GlcN6P” value (glucosamine-6-phosphate [1]) was 0.000144 ± 2.6e-05 s⁻¹ and the “self-cleavage kobs at 10000 uM GlcN6P” value (glucosamine-6-phosphate [5]) was 0.00921 ± 0.0012 s⁻¹.

For A15G A39C C61U G63C C68G, the “self-cleavage kobs at 40 uM GlcN6P” value (glucosamine-6-phosphate [1]) was less than 1e-05 s⁻¹ and the “self-cleavage kobs at 640 uM GlcN6P” value (glucosamine-6-phosphate [3]) was less than 1e-05 s⁻¹.

For A14U G40A U56G, the “self-cleavage kobs at 40 uM GlcN6P” value (glucosamine-6-phosphate [1]) was 0.000117 ± 2.9e-05 s⁻¹ and the “self-cleavage kobs at 10000 uM GlcN6P” value (glucosamine-6-phosphate [5]) was 0.00163 ± 0.00045 s⁻¹.

For A15U U47C C61U, the “self-cleavage kobs at 40 uM GlcN6P” value (glucosamine-6-phosphate [1]) was less than 1e-05 s⁻¹ and the “self-cleavage kobs at 10000 uM GlcN6P” value (glucosamine-6-phosphate [5]) was less than 1e-05 s⁻¹.

With A14U U69C the “self-cleavage kobs at 40 uM GlcN6P” value (glucosamine-6-phosphate [1]) was 0.000126 ± 2.3e-05 s⁻¹, the “self-cleavage kobs at 160 uM GlcN6P” value (glucosamine-6-phosphate [2]) was 0.000147 ± 2.2e-05 s⁻¹ and the “self-cleavage kobs at 640 uM GlcN6P” value (glucosamine-6-phosphate [3]) was 0.000362 ± 4.8e-05 s⁻¹. For the same variant, the “self-cleavage kobs at 2500 uM GlcN6P” value (glucosamine-6-phosphate [4]) was 0.000501 ± 0.00015 s⁻¹ and the “self-cleavage kobs at 10000 uM GlcN6P” value (glucosamine-6-phosphate [5]) was 0.00132 ± 0.00026 s⁻¹.

A15C U55A C61G was tested, and the “self-cleavage kobs at 40 uM GlcN6P” value (glucosamine-6-phosphate [1]) was less than 1e-05 s⁻¹ and the “self-cleavage kobs at 10000 uM GlcN6P” value (glucosamine-6-phosphate [5]) was less than 1e-05 s⁻¹.

In the case of G13C U57G, the “self-cleavage kobs at 40 uM GlcN6P” value (glucosamine-6-phosphate [1]) is reported as less than 1e-05 s⁻¹.

With A15G C50G C68U the “self-cleavage kobs at 40 uM GlcN6P” value (glucosamine-6-phosphate [1]) was 0.000179 ± 3.4e-05 s⁻¹, the “self-cleavage kobs at 640 uM GlcN6P” value (glucosamine-6-phosphate [3]) was 0.000492 ± 0.00016 s⁻¹ and the “self-cleavage kobs at 2500 uM GlcN6P” value (glucosamine-6-phosphate [4]) was 0.000371 ± 0.00011 s⁻¹. For the same variant, the “self-cleavage kobs at 10000 uM GlcN6P” value (glucosamine-6-phosphate [5]) was 0.000154 ± 3.1e-05 s⁻¹.

In the case of A14U G32C C50A C68G, the “self-cleavage kobs at 40 uM GlcN6P” value (glucosamine-6-phosphate [1]) is reported as 8.36e-05 ± 3e-05 s⁻¹, the “self-cleavage kobs at 640 uM GlcN6P” value (glucosamine-6-phosphate [3]) is reported as 0.000278 ± 7.7e-05 s⁻¹ and the “self-cleavage kobs at 2500 uM GlcN6P” value (glucosamine-6-phosphate [4]) is reported as 0.000126 ± 6e-05 s⁻¹. The “self-cleavage kobs at 10000 uM GlcN6P” value (glucosamine-6-phosphate [5]) was 7.34e-05 ± 2.2e-05 s⁻¹.

In the case of A15C U30G A39U, the “self-cleavage kobs at 40 uM GlcN6P” value (glucosamine-6-phosphate [1]) is reported as 0.00162 ± 0.00029 s⁻¹ and the “self-cleavage kobs at 10000 uM GlcN6P” value (glucosamine-6-phosphate [5]) is reported as 0.0346 ± 0.013 s⁻¹.

With G13C G29U G32A the “self-cleavage kobs at 40 uM GlcN6P” value (glucosamine-6-phosphate [1]) was 7.61e-05 ± 2.4e-05 s⁻¹ and the “self-cleavage kobs at 10000 uM GlcN6P” value (glucosamine-6-phosphate [5]) was 0.00214 ± 0.00069 s⁻¹.

With A14G G40A the “self-cleavage kobs at 40 uM GlcN6P” value (glucosamine-6-phosphate [1]) was 0.000801 ± 0.00011 s⁻¹, the “self-cleavage kobs at 160 uM GlcN6P” value (glucosamine-6-phosphate [2]) was 0.00119 ± 0.00039 s⁻¹ and the “self-cleavage kobs at 640 uM GlcN6P” value (glucosamine-6-phosphate [3]) was 0.0045 ± 0.00098 s⁻¹. The “self-cleavage kobs at 2500 uM GlcN6P” value (glucosamine-6-phosphate [4]) was 0.00484 ± 0.0011 s⁻¹ and the “self-cleavage kobs at 10000 uM GlcN6P” value (glucosamine-6-phosphate [5]) was 0.0666 ± 0.029 s⁻¹.

A14C G40U U46C C68U was tested, and the “self-cleavage kobs at 40 uM GlcN6P” value (glucosamine-6-phosphate [1]) was less than 1e-05 s⁻¹.

For A14U U55G C61G, the “self-cleavage kobs at 40 uM GlcN6P” value (glucosamine-6-phosphate [1]) was less than 1e-05 s⁻¹ and the “self-cleavage kobs at 10000 uM GlcN6P” value (glucosamine-6-phosphate [5]) was less than 1e-05 s⁻¹.

With A14U G35C A42C the “self-cleavage kobs at 40 uM GlcN6P” value (glucosamine-6-phosphate [1]) was less than 1e-05 s⁻¹ and the “self-cleavage kobs at 160 uM GlcN6P” value (glucosamine-6-phosphate [2]) was less than 1e-05 s⁻¹.

A14C U57C U69C was tested, and the “self-cleavage kobs at 40 uM GlcN6P” value (glucosamine-6-phosphate [1]) was less than 1e-05 s⁻¹.

For A14G G40U C50G, the “self-cleavage kobs at 40 uM GlcN6P” value (glucosamine-6-phosphate [1]) was less than 1e-05 s⁻¹.

With A14C G62C G63A C68G the “self-cleavage kobs at 40 uM GlcN6P” value (glucosamine-6-phosphate [1]) was less than 1e-05 s⁻¹.

A14U A36C was tested, and the “self-cleavage kobs at 40 uM GlcN6P” value (glucosamine-6-phosphate [1]) was less than 1e-05 s⁻¹, the “self-cleavage kobs at 640 uM GlcN6P” value (glucosamine-6-phosphate [3]) was less than 1e-05 s⁻¹ and the “self-cleavage kobs at 10000 uM GlcN6P” value (glucosamine-6-phosphate [5]) was less than 1e-05 s⁻¹.

A14C A15C C50G G60C C67U was tested, and the “self-cleavage kobs at 40 uM GlcN6P” value (glucosamine-6-phosphate [1]) was 6.66e-05 ± 3e-05 s⁻¹.

With A14U G41U G44U the “self-cleavage kobs at 40 uM GlcN6P” value (glucosamine-6-phosphate [1]) was less than 1e-05 s⁻¹, the “self-cleavage kobs at 160 uM GlcN6P” value (glucosamine-6-phosphate [2]) was less than 1e-05 s⁻¹ and the “self-cleavage kobs at 640 uM GlcN6P” value (glucosamine-6-phosphate [3]) was less than 1e-05 s⁻¹. The “self-cleavage kobs at 10000 uM GlcN6P” value (glucosamine-6-phosphate [5]) was less than 1e-05 s⁻¹.

In the case of A14C A15G C70U, the “self-cleavage kobs at 40 uM GlcN6P” value (glucosamine-6-phosphate [1]) is reported as 6.72e-05 ± 1.7e-05 s⁻¹, the “self-cleavage kobs at 160 uM GlcN6P” value (glucosamine-6-phosphate [2]) is reported as 0.000124 ± 2.7e-05 s⁻¹ and the “self-cleavage kobs at 640 uM GlcN6P” value (glucosamine-6-phosphate [3]) is reported as 0.000547 ± 0.00017 s⁻¹. For the same variant, the “self-cleavage kobs at 2500 uM GlcN6P” value (glucosamine-6-phosphate [4]) was 0.00207 ± 0.00058 s⁻¹.
